From publication PMC12150503 (Cell Communication and Signaling : CCS, 2025)
Positions count from the first letter of the chain named. In names and notes the source's numbering stands.

B1: GST-mouse RMP-WT (natural protein, UniProt Q3TLD5 1-531, looked up)
chain: MEPPSEPEPEPQPLAEASAAAPLRAPEVARLREEQEKVVTNCQEKIQHWEKVDNDYSALQERLRTLPDKLSYDVMVPFGPLAFMPGKLVHTNEVTVLLGDNWFAKCSAKQAVGLVEHRKEHVRKTIDDFKKVLKNFESRVEFTEDLQKMSDAAGDFVDIREEIKSDFEFKGKQRIAHKPHSKPKTSDIFEADFENGVKPKNTFDADELWARLEELERQEELLGELESKPDTVIANGEDRVSSEEEKEGADTGVNVVSPVTDSSAASSCKRRAGNAGLPNGQVNSLNYSVNGSNSYHSNKDDDEEEEDDDDDDDEDDDNESDHAISADNSIPTIYFSHTVEPKRVRINTGKNTTLKFSEKKEEAKRKRKSGAGSHATHELPAIKSPADIYRVFVDVVNGEYVPRKSILKSRSRENSVCSDTSESSAADVEDRRGLLRSTSSEEAVATEAGGSSLDELQENHPKKPLPSGVSEAFSGTVIEKEFLSPSLAPYSAIAHHALPTIPERKEVPSEVSEEPTKRVSKFRAARLQQRS
B2: GST-mouse RMP-S439A (natural protein, UniProt Q3TLD5 1-531, looked up)
chain: B1 chain with S439A

Biological target: T1, His-mouse IKKβ (purified) (mouse, UniProt O88351 1-757)
T1 sequence (looked up): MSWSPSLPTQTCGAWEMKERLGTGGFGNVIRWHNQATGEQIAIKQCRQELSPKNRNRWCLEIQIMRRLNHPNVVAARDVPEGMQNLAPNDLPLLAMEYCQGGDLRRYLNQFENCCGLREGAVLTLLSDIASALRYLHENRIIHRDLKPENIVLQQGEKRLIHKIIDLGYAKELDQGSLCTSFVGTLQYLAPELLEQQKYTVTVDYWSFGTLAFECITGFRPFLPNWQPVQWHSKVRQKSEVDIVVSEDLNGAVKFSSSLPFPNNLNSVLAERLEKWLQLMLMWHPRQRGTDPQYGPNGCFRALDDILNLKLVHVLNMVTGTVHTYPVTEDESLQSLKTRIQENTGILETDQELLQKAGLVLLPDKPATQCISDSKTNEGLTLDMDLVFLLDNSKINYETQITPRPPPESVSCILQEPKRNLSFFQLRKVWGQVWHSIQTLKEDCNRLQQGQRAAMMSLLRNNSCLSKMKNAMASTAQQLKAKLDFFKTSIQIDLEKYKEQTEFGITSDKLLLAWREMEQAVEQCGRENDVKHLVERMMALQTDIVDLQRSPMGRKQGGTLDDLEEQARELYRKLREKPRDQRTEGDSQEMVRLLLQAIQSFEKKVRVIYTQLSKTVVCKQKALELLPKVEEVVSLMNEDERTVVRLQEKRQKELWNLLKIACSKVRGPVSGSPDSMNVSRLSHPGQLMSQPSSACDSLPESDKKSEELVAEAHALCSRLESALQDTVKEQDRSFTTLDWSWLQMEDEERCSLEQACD
Assay: pull-down

binding result | Binder
binds | B1
binds | B2
